Test results taken from PMC5148612.

B1: Atg12~Atg5-Atg16-mCherry complex [modified: conjugated to Atg5 (Atg12~Atg5 protein conjugate) | conjugated to Atg12; conjugated to Atg5 (Atg12~Atg5 protein conjugate); conjugated to Atg12] [S. cerevisiae] / … (parent)
chain 1: MSRILESENETESDESSIISTNNGTAMERSRNNQELRSSPHTVQNRLELFSRRLSQLGLASDISVDQQVEDSSSGTYEQEETIKTNAQTSKQKSHKDEKNIQKIQIKFQPIGSIGQLKPSVCKISMSQSFAMVILFLKRRLKMDHVYCYINNSFAPSPQQNIGELWMQFKTNDELIVSYCASVAFG
chain 2: MNDIKQLLWNGELNVLVSIDPSFLMKGSPREIAVLRIRVPRETYLVNYMPLIWNKIKSFLSFDPLTDSEKYFWFEHNKTPIPWNYPVGVLFDCLAGKSATFTTSFENQVKDVLTFLRIHLVMGDSLPPTIIPIASSKTQAEKFWFHQWKQVCFILNGSSKAIMSLSVNEARKFWGSVITRNFQDFIEISNKISSSRPRHIPLIIQTSRTSGTFRISQPTISMTGVNPTLKDIEGDILDVKEGINGNDVMVICQGIEIPWHMLLYDLYSKLRSFDGFLYITLVPIKGGDKASSEL
chain 3: MGNFIITERKKAKEERSNPQTDSMDDLLIRRLTDRNDKEAHLNELFQDNSGAIGGNIVSHDDALLNTLAILQKELKSKEQEIRRLKEVIALKNKNTERLNDELISGTIENNVLQQKLSDLKKEHSQLVARWLKKTEKETEAMNSEIDGTK
chain 4: MEEQREILEQLKKTLQMLTVEPSKNNQIANEEKEKKENENSWCIL
chain 5: MNNSKTNQQMNTSMGYPLTVYDECNKFQLIVPTLDANIMLWCIGQLSLLNDSNGCKHLFWQPNDKSNVRILLNNYDYGHLFKYLQCQRKCSVYIGEGTLKKYNLTISTSFDNFLDLTPSEEKESLCREDAHEDPVSPKAGSEEEISPNSTSNVVVSRECLDNFMKQLLKLEESLNKLELEQKVTNKEPNHRISGTIDIPEDRSELVNFFTELKTVKQLEDVFQRYHDYERLSQECDSKTEIASDHSKKETKIEVEPPNERSLQITMNQRDNSLYFQLFNNTNSVLAGNCKLKFTDAGDKPTTQIIDMGPHEIGIKEYKEYRYFPYALDLEAGSTIEIENQYGEVIFLGKYGSSPMINLRPPSRLSAESLQASQEPFYSFQIDTLPELDDSSIISTSISLSYDGDDNEKALTWEEL

Variants of: B1
Assay: microscopy-based bead recruitment assay (mCherry signal at cargo mimetic beads)
Details: with GST-prApe1(1–45) + Atg19 [S. cerevisiae]; 25 mM HEPES pH 7.5, 150 NaCl and 1 mM DTT; parent: 100; read off a plot

Variant	percent of parent [%]
chain 2 K57E N84E	55
chain 2 N84E	70
chain 2 K57E	68
